B1: CPEB3 Ribozyme (parent)
chain: GGGGGCCACAGCAGAAGCGUUCACGUCGCGGCCCCUGUCAGAUUCUGGUGAAUCUGCGAAUUCUGCUGU

Variants of: B1
Test: self-cleavage, relative activity (ratio to wild type); higher = more cleavage; co-transcriptional

Compared with GGGGGCCACAGCAGAAGCGUUAAGGUCGCGGCCCCUGUCAGAUUCUGGUGAAUCUGCGAAUUCUGCUGU [C22A C24G], GGGGGCCACAGCAGAAGCGUUAAUGUCGCGGCCCCUGUCAGAUUCUGGUGAAUCUGCGAAUUCUGCUGU [C22A C24U] is lower in self-cleavage: 0.249 for the first, 0.128 for the second.

First: GGGGGCCACAGCAGAAGCGUUAACGUCGAGGCCCCUGUCAGAUUCUGGUGAAUCUGCGAAUUCUGCUGU [C22A C29A]
Second: GGGGGCCACAGCAGAAGCGUUAACGUCGGGGCCCCUGUCAGAUUCUGGUGAAUCUGCGAAUUCUGCUGU [C22A C29G]
The self-cleavage of the first is higher: 0.169 for the first, 0.162 for the second.

First: GGGGGCCACAGCAGAAGCGUUAACGUCGUGGCCCCUGUCAGAUUCUGGUGAAUCUGCGAAUUCUGCUGU [C22A C29U]
Second: GGGGGCCACAGCAGAAGCGUUAACGUCGCGGACCCUGUCAGAUUCUGGUGAAUCUGCGAAUUCUGCUGU [C22A C32A]
The self-cleavage of the first is lower: 0.158 for the first, 0.224 for the second.

Compared with GGGGGCCACAGCAGAAGCGUUAACGUCGCGGGCCCUGUCAGAUUCUGGUGAAUCUGCGAAUUCUGCUGU [C22A C32G], GGGGGCCACAGCAGAAGCGUUAACGUCGCGGUCCCUGUCAGAUUCUGGUGAAUCUGCGAAUUCUGCUGU [C22A C32U] is higher in self-cleavage: 0.182 for the first, 0.201 for the second.

First: GGGGGCCACAGCAGAAGCGUUAACGUCGCGGCACCUGUCAGAUUCUGGUGAAUCUGCGAAUUCUGCUGU [C22A C33A]
Second: GGGGGCCACAGCAGAAGCGUUAACGUCGCGGCUCCUGUCAGAUUCUGGUGAAUCUGCGAAUUCUGCUGU [C22A C33U]
The self-cleavage of the first is lower: 0.2 for the first, 0.218 for the second.

Compared with GGGGGCCACAGCAGAAGCGUUAACGUCGCGGCCACUGUCAGAUUCUGGUGAAUCUGCGAAUUCUGCUGU [C22A C34A], GGGGGCCACAGCAGAAGCGUUAACGUCGCGGCCCAUGUCAGAUUCUGGUGAAUCUGCGAAUUCUGCUGU [C22A C35A] is higher in self-cleavage: 0.206 for the first, 0.252 for the second.

Compared with GGGGGCCACAGCAGAAGCGUUAACGUCGCGGCCCGUGUCAGAUUCUGGUGAAUCUGCGAAUUCUGCUGU [C22A C35G], GGGGGCCACAGCAGAAGCGUUAACGUCGCGGCCCUUGUCAGAUUCUGGUGAAUCUGCGAAUUCUGCUGU [C22A C35U] is lower in self-cleavage: 0.153 for the first, 0.138 for the second.

Compared with GGGGGCCACAGCAGAAGCGUUAACGUCGCGGCCCCUGUUAGAUUCUGGUGAAUCUGCGAAUUCUGCUGU [C22A C39U], GGGGGCCACAGCAGAAGCGUUAACGUCGCGGCCCCUGUCAGAUUGUGGUGAAUCUGCGAAUUCUGCUGU [C22A C45G] is lower in self-cleavage: 0.206 for the first, 0.194 for the second.

First: GGGGGCCACAGCAGAAGCGUUAACGUCGCGGCCCCUGUCAGAUUCUGGUGAAUGUGCGAAUUCUGCUGU [C22A C54G]
Second: GGGGGCCACAGCAGAAGCGUUAACGUCGCGGCCCCUGUCAGAUUCUGGUGAAUUUGCGAAUUCUGCUGU [C22A C54U]
The self-cleavage of the first is higher: 0.2 for the first, 0.139 for the second.

First: GGGGGCCACAGCAGAAGCGUUAACGUCGCGGCCCCUGUCAGAUUCUGGUGAAUCUGGGAAUUCUGCUGU [C22A C57G]
Second: GGGGGCCACAGCAGAAGCGUUAACGUCGCGGCCCCUGUCAGAUUCUGGUGAAUCUGUGAAUUCUGCUGU [C22A C57U]
The self-cleavage of the first is higher: 0.187 for the first, 0.137 for the second.

First: GGGGGCCACAGCAGAAGCGUUAACGUCGCGGCCCCUGUCAGAUUCUGGUGAAUCUGCGAAUUAUGCUGU [C22A C63A]
Second: GGGGGCCACAGCAGAAGCGUUAACGUCGCGGCCCCUGUCAGAUUCUGGUGAAUCUGCGAAUUGUGCUGU [C22A C63G]
The self-cleavage of the first is higher: 0.13 for the first, 0.114 for the second.

Going from GGGGGCCACAGCAGAAGCGUUAACGUCGCGGCCCCUGUCAGAUUCUGGUGAAUCUGCGAAUUCUGGUGU [C22A C66G] to GGGGGCCACAGCAGAAGCGUUAACGUCGCGGCCCCUGUCAGAUUCUGGUGAAUCUGCGAAUUCUGUUGU [C22A C66U], the self-cleavage rises from 0.138 to 0.177.

First: GGGGGCCACAGCAGAAGCGUUAACAUCGCGGCCCCUGUCAGAUUCUGGUGAAUCUGCGAAUUCUGCUGU [C22A G25A]
Second: GGGGGCCACAGCAGAAGCGUUAACUUCGCGGCCCCUGUCAGAUUCUGGUGAAUCUGCGAAUUCUGCUGU [C22A G25U]
The self-cleavage of the first is higher: 0.162 for the first, 0.115 for the second.

First: GGGGGCCACAGCAGAAGCGUUAACGUCACGGCCCCUGUCAGAUUCUGGUGAAUCUGCGAAUUCUGCUGU [C22A G28A]
Second: GGGGGCCACAGCAGAAGCGUUAACGUCCCGGCCCCUGUCAGAUUCUGGUGAAUCUGCGAAUUCUGCUGU [C22A G28C]
The self-cleavage of the first is higher: 0.158 for the first, 0.124 for the second.

Going from GGGGGCCACAGCAGAAGCGUUAACGUCUCGGCCCCUGUCAGAUUCUGGUGAAUCUGCGAAUUCUGCUGU [C22A G28U] to GGGGGCCACAGCAGAAGCGUUAACGUCGCCGCCCCUGUCAGAUUCUGGUGAAUCUGCGAAUUCUGCUGU [C22A G30C], the self-cleavage rises from 0.159 to 0.168.

Compared with GGGGGCCACAGCAGAAGCGUUAACGUCGCUGCCCCUGUCAGAUUCUGGUGAAUCUGCGAAUUCUGCUGU [C22A G30U], GGGGGCCACAGCAGAAGCGUUAACGUCGCGACCCCUGUCAGAUUCUGGUGAAUCUGCGAAUUCUGCUGU [C22A G31A] is lower in self-cleavage: 0.181 for the first, 0.174 for the second.

First: GGGGGCCACAGCAGAAGCGUUAACGUCGCGCCCCCUGUCAGAUUCUGGUGAAUCUGCGAAUUCUGCUGU [C22A G31C]
Second: GGGGGCCACAGCAGAAGCGUUAACGUCGCGUCCCCUGUCAGAUUCUGGUGAAUCUGCGAAUUCUGCUGU [C22A G31U]
The self-cleavage of the first is lower: 0.137 for the first, 0.194 for the second.

Going from GGGGGCCACAGCAGAAGCGUUAACGUCGCGGCCCCUCUCAGAUUCUGGUGAAUCUGCGAAUUCUGCUGU [C22A G37C] to GGGGGCCACAGCAGAAGCGUUAACGUCGCGGCCCCUUUCAGAUUCUGGUGAAUCUGCGAAUUCUGCUGU [C22A G37U], the self-cleavage rises from 0.265 to 0.937.

First: GGGGGCCACAGCAGAAGCGUUAACGUCGCGGCCCCUGUCAAAUUCUGGUGAAUCUGCGAAUUCUGCUGU [C22A G41A]
Second: GGGGGCCACAGCAGAAGCGUUAACGUCGCGGCCCCUGUCACAUUCUGGUGAAUCUGCGAAUUCUGCUGU [C22A G41C]
The self-cleavage of the first is lower: 0.12 for the first, 0.138 for the second.

In the case of GGGGGCCACAGCAGAAGCGUUAACGUCGCGGCCCCUGUCAUAUUCUGGUGAAUCUGCGAAUUCUGCUGU [C22A G41U], the self-cleavage is reported as 0.154.

From the RNAGym collection of RNA variant scans (doi:10.7554/elife.80360)
